Laboratory results: US20220395553A1 (COHBAR, published 2022)
Square brackets hold non-standard residues; d marks the D form. Ends that are not written are not given here.

Assays:
[1] = target: T1, SNAP tagged-CXC4 receptor labeled with terbium (Tag-lite CXCR4 cells, HEK293) (UniProt P61073 1-352, SNAP tag labeled with terbium fluorescent dye); assay: HTRF competition on Tag-lite CXCR4 HEK293 cells; competitor labelled CXCL12
T1 construct: whole, on cells; Bought frozen cells (PerkinElmer-CisBio), HEK293 transiently expressing the receptor; also called terbium labeled CXCR receptor
Description: Peptides were initially prepared as 1 mM stock in H₂O and tested at a final concentration of 400 nM. Following the manufacture's protocol, a frozen aliquot of Tag-lite CXCR4 cells was thawed and immediately seeded onto 384-well plates in TLB. Immediately following the addition of cells, 400 nM peptide (final concentration) in TLB was added to the appropriate well. […] The plates were covered in aluminum foil and left at room temperature for 3 hours. Following the 3 hour incubation period, the plates were removed from the incubator and fluorescence measured using a Cytation 1 plate reader using a HTRF filter cube ([…]; BioTek; Winooski, Vt.).

[2] = target: ProLink tagged human CXCR4 (C2C12 CXCR4 β-Arrestin cell line) (human, UniProt P61073 1-352); assay: cell-based or functional assay
[3] = target: CXCR4 on cultured U937 and Jurkat cells (human, UniProt P61073 1-352); assay: cell-based or functional assay
CXCR4 on cultured U937 and Jurkat cells, sequence (P61073 whole entry): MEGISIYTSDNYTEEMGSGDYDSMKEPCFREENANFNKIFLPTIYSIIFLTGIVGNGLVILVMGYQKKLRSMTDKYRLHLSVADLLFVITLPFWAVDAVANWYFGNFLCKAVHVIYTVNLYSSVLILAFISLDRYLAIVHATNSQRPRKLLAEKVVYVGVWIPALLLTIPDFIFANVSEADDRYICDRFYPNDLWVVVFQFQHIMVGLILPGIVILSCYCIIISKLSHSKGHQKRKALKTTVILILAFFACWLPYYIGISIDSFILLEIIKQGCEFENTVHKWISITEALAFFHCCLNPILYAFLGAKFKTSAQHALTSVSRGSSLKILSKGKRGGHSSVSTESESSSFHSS

T1 sequence (P61073 whole entry): as above
ProLink tagged human CXCR4 (C2C12 CXCR4 β-Arrestin cell line), sequence (P61073 whole entry): as above

| Binder | Percent Inhibition of CXCR4/CXCL12 Binding (400 nM peptide) [1] | IC50 for Inhibition of CXCR4 Activation (β-Arrestin recruitment) [2] | Percent Inhibition of CXCR4/CXCL12 Induced p-MEK (100 nM Test Article) [3] | Percent Inhibition of CXCR4/CXCL12 Induced p-MEK (1 µM Test Article) [3] |
| --- | --- | --- | --- | --- |
| LRRYHHS[dA]ESSLRPYTK [SEQ ID NO: 64] | -6% | 14 nM |  |  |
| LRRYHHS[dA]RSSLRPYTK [SEQ ID NO: 6] | -10% | 8 nM |  |  |
| LERYHHT[dA]RSSLRPYTK [SEQ ID NO: 40] |  | 5 nM | 33% | 94% |
| LREYHHS[dA]RSSLRPYTK [SEQ ID NO: 32] | -18% | > 1000 nM |  |  |
| YHHSVRSSLRPYTK [SEQ ID NO: 12] | -13% | > 1000 nM |  |  |
| LRRYHHS[dA]RSSLDPYTK [SEQ ID NO: 69] | -5% | 63 nM |  |  |
| LERYHQS[dA]RSSLRPYTK [SEQ ID NO: 52] | -2% | 121 nM |  |  |
| LRRYHHSVESSLRPYTK [SEQ ID NO: 62] | 4% | 64 nM |  |  |
| LRRYHHSVRSSLRPY [SEQ ID NO: 25] | 0% | 51 nM |  |  |
| LRRYHHS[dA]RSSLEPYTK [SEQ ID NO: 65] | -5% | 40 nM |  |  |
| RRYHHSVRSSLRPYTK [SEQ ID NO: 10] | -8% | 103 nM |  |  |
| RYHHSVRSSLRPYTK [SEQ ID NO: 11] | -9% | 175 nM |  |  |
| LRRYHHSVRSSLRP [SEQ ID NO: 26] | 1% | 67 nM |  |  |
| SVRSSLRPYTK [SEQ ID NO: 15] | -11% | > 1000 nM |  |  |
| LRRYNHSVRSSLRPYTK [SEQ ID NO: 41] | -2% | 4 nM |  |  |
| LRRYHHSVRSS [SEQ ID NO: 29] | 14% | 46 nM |  |  |
| LERYHNSVRSSLRPYTK [SEQ ID NO: 45] | 1% | 121 nM |  |  |

| Binder | Percent Inhibition of CXCR4/CXCL12 Binding (400 nM peptide) [1] | IC50 for Inhibition of CXCR4 Activation (β-Arrestin recruitment) [2] | Percent Inhibition of CXCR4/CXCL12 Induced p-MEK (100 nM Test Article) [3] | Percent Inhibition of CXCR4/CXCL12 Induced p-MEK (1 µM Test Article) [3] |
| --- | --- | --- | --- | --- |
| HSVRSSLRPYTK [SEQ ID NO: 14] | -15% | > 1000 nM |  |  |
| LRRYQHSVRSSLRPYTK [SEQ ID NO: 47] | 5% | 11 nM |  |  |
| LERYNHSVRSSLRPYTK [SEQ ID NO: 42] | 32% | 22 nM |  |  |
| LRRYHQSVRSSLRPYTK [SEQ ID NO: 50] | -5% | 121 nM |  |  |
| LERYHNS[dA]RSSLRPYTK [SEQ ID NO: 46] | -4% | 187 nM |  |  |
| LRRYHHSVRSSLR [SEQ ID NO: 27] | 10% | 34 nM |  |  |
| LREYHHSVRSSLRPYTK [SEQ ID NO: 31] | -16% | > 1000 nM |  |  |
| LERYHQSVRSSLRPYTK [SEQ ID NO: 51] | -2% | 134 nM |  |  |
| HHSVRSSLRPYTK [SEQ ID NO: 13] | -10% | > 1000 nM |  |  |
| LRRYHHS[dA]DSSLRPYTK [SEQ ID NO: 68] | -10% | 13 nM |  |  |
| LERYQHS[dA]RSSLRPYTK [SEQ ID NO: 49] | 20% | 66 nM |  |  |
| LRRYHHSVRSSLEPYTK [SEQ ID NO: 63] | 9% | 14 nM |  |  |
| LRRYHHSVRSSLRPYT [SEQ ID NO: 24] | 8% | 102 nM |  |  |
| LRRYHNSVRSSLRPYTK [SEQ ID NO: 44] | 0% | 32 nM |  |  |
| LRRYHHSVRSSL [SEQ ID NO: 28] | 12% | 4 nM |  |  |
| LRDYHHS[dA]RSSLRPYTK [SEQ ID NO: 37] | -14% | > 1000 nM |  |  |
| LERYQHSVRSSLRPYTK [SEQ ID NO: 48] | 13% | 53 nM |  |  |
